# Measured values: patent US9187525B2, “Methods of treating ophthalmic diseases using NPR-B agonists” (Shire Orphan Therapies GmbH, dated 2015)
# Numbered stars: 1 amine (or outer) side, 2 acyl side, 3 side chain; on linkers, the order of the positions; unused ones are H or OH. Square brackets hold non-standard residues; d marks the D form. Ends that are not written are not given here. * marks the point of attachment. Pmy = (S)-para-methoxy-phenylalanine, COc1ccc(C[C@H](N[*:1])C(=O)[*:2])cc1; Pro(trans-4-NH2) = O=C([C@@H]1C[C@@H](N[*:3])CN1[*:1])[*:2]; 1381 = (S)-3,3-dimethylbutan-2-amine, C[C@H](N*)C(C)(C)C; Sni = (S)-nipecotic acid, O=C([C@H]1CCCN([*:1])C1)[*:2]; Pro(trans-4-Ph) = O=C(O)[C@@H]1C[C@@H](c2ccccc2)CN1; NH((S)-tetralin-1-yl) = c1ccc2c(c1)CCC[C@@H]2N*; Phe(3,4-Cl2) = N[C@@H](Cc1ccc(Cl)c(Cl)c1)C(=O)O; 5121 = 1-propyl-butyl-amine, CCCC(CCC)N*; dGly(2-thienyl) = N[C@@H](C(=O)O)c1cccs1; Bmf = rac-2-amino-3-phenyl-butyric acid; Gly(2-thienyl) = N[C@H](C(=O)O)c1cccs1; Phe(4-F) = N[C@@H](Cc1ccc(F)cc1)C(=O)O; Butanoyl(4-cHex) = O=C(CCCC1CCCCC1)*; NMeR = CN[C@@H](CCCNC(=N)N)C(=O)O; Hyp = O=C(O)[C@@H]1C[C@@H](O)CN1; NMeI = CC[C@H](C)[C@H](NC)C(=O)O; NMeL = CN[C@@H](CC(C)C)C(=O)O; BB725 = not defined here; Octanoyl = CCCCCCCC(=O)*; 1860 = not defined here; 1906 = not defined here; 2906 = cyclobutyl-amine; Ac5c = NC1(C(=O)O)CCCC1; Api = NC1(C(=O)O)CCNCC1; Che = not defined here; Hexanoyl = CCCCCC(=O)*; Paf = not defined here; leu = not defined here; Occ = octanoic acid
# T1: natriuretic peptide receptor-B (human)
# T1 chain: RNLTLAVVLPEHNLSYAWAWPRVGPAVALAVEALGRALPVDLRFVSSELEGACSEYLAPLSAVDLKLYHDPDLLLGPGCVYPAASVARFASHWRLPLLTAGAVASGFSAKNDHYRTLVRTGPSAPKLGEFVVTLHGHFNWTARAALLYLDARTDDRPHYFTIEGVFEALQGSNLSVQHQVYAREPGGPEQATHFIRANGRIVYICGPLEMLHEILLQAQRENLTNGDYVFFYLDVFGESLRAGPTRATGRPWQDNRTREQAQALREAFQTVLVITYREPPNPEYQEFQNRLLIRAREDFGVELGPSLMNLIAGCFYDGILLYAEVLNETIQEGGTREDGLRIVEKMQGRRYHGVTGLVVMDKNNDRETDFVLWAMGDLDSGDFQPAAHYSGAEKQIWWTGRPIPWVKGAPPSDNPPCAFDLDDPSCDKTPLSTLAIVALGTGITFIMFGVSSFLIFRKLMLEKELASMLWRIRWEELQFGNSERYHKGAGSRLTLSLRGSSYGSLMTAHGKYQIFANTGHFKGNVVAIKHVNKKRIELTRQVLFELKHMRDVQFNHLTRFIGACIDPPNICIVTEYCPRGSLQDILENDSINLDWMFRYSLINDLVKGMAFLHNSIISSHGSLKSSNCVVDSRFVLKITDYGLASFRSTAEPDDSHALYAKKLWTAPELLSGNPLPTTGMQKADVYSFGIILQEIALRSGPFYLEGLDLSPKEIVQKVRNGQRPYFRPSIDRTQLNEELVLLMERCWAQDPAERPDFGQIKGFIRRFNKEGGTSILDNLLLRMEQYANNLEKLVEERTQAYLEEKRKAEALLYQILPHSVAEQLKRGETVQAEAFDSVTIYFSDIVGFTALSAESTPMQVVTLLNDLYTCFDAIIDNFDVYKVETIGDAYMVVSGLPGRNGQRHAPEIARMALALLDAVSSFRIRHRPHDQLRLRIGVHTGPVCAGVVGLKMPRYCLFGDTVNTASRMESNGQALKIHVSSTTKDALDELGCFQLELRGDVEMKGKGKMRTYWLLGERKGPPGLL
# Target: T1, natriuretic peptide receptor-B
# Experiment: cell-based or functional assay
row,Binder,"EC50 group, cGMP in GTM-3 cells"
1,XXFGLKLDRI (HELM PEPTIDE1{[CCCCCC(=O)[*:2]].[O=C([C@H]1CCC[C@@H](N[*:1])C1)[*:2]].F.G.L.K.L.D.R.I.[am]}$$$$V2.0; SMILES CCCCCC(=O)N[C@@H]1CCC[C@H](C(=O)N[C@@H](Cc2ccccc2)C(=O)NCC(=O)N[C@@H](CC(C)C)C(=O)N[C@@H](CCCCN)C(=O)N[C@@H](CC(C)C)C(=O)N[C@@H](CC(=O)O)C(=O)N[C@@H](CCCNC(=N)N)C(=O)N[C@H](C(N)=O)[C@@H](C)CC)C1) [JAL-0657],≤ 15 µM
2,[Occ][Sni]FLL[Hyp][NMeL]DP[1860] (not fully specified (residue 4); printed as Occ-Sni-Phe-leu-Leu-Hyp-Nml-Asp-Pro-1860; reading uncertain) [JAL-1510],≤ 1 µM
3,[Occ][Sni]FLL[Hyp][NMeL]DP[1381] (not fully specified (residue 4); printed as Occ-Sni-Phe-leu-Leu-Hyp-Nml-Asp-Pro-1381) [JAL-1509],≤ 5 µM
4,[Occ][Sni]FLL[Hyp][NMeL]DP[2906] (not fully specified (residue 4); printed as Occ-Sni-Phe-leu-Leu-Hyp-Nml-Asp-Pro-2906) [JAL-1508],≤ 15 µM
5,Octanoyl-[Sni][Pmy][leu]L[Hyp][NMeL]DRI-NH2 (reading uncertain; also: printed as Occ-Sni-Pmy-leu-Leu-Hyp-Nml-Asp-Arg-Ile-) [JAL-1488],≤ 5 µM
6,Octanoyl-[Sni][Paf][leu]L[Hyp][NMeL]DRI-NH2 (reading uncertain; also: printed as Occ-Sni-Paf-leu-Leu-Hyp-Nml-Asp-Arg-Ile-NH2) [JAL-1492],≤ 5 µM
7,Hexanoyl-[dA][dA]FGLKLDR[Ac5c]-NH2 [JAL-0692],≤ 15 µM
8,[Occ][Sni]FLL[Hyp][NMeL]DP[NH((S)-tetralin-1-yl)] (not fully specified (residue 4); printed as Occ-Sni-Phe-leu-Leu-Hyp-Nml-Asp-Pro-2118) [JAL-1506],≤ 5 µM
9,Octanoyl-[Sni][Pro(trans-4-Ph)][leu]L[Hyp][NMeL]DRI-NH2 (reading uncertain; also: printed as Occ-Sni-Eay-leu-Leu-Hyp-Nml-Asp-Arg-Ile-NH2) [JAL-1491],≤ 5 µM
10,"[Occ][Sni][Phe(3,4-Cl2)]LL[Hyp][NMeL]DRI-NH2 (not fully specified (residue 4); printed as Occ-Sni-Eaa-leu-Leu-Hyp-Nml-Asp-Arg-Ile-NH2) [JAL-1496]",≤ 1 µM
11,Octanoyl-[Sni]X[leu]L[Hyp][NMeL]DRI-NH2 (not fully specified (some residues); printed as Occ-Sni-Pmf-leu-Leu-Hyp-Nml-Asp-Arg-Ile-NH2) [JAL-1494],≤ 1 µM
12,[Occ][Sni]FLL[Hyp][NMeL]DP[1381] (not fully specified (residue 4); printed as Occ-Sni-Phe-leu-Leu-Hyp-Nml-Asp-Pro-1381) [JAL-1509_02],≤ 5 µM
13,{Butanoyl(4-cHex)}-[dA][dA]FGLKLDRI-NH2 [JAL-0693],≤ 15 µM
14,Octanoyl-[Sni]Y[leu]L[Hyp][NMeL]DRI-NH2 (reading uncertain; also: printed as Occ-Sni-Tyr-leu-Leu-Hyp-Nml-Asp-Arg-Ile-NH2) [JAL-1489],≤ 15 µM
15,[Occ][Sni]FLL[Hyp][NMeL]DP[1906] (not fully specified (residue 4); printed as Occ-Sni-Phe-leu-Leu-Hyp-Nml-Asp-Pro-1906; reading uncertain) [JAL-1511],≤ 5 µM
16,Octanoyl-[Sni][Bmf][leu]L[Hyp][NMeL]DRI-NH2 (reading uncertain; also: printed as Occ-Sni-Bmf-leu-Leu-Hyp-Nml-Asp-Arg-Ile-) [JAL-1490],≤ 15 µM
17,Octanoyl-[Sni]X[leu]L[Hyp][NMeL]DRI-NH2 (not fully specified (some residues); printed as Occ-Sni-Pcf-leu-Leu-Hyp-Nml-Asp-Arg-Ile-NH2) [JAL-1493],≤ 1 µM
18,Octanoyl-[Sni][Phe(4-F)][leu]L[Hyp][NMeL]DRI-NH2 (reading uncertain; also: printed as Occ-Sni-Pff-leu-Leu-Hyp-Nml-Asp-Arg-Ile-NH2) [JAL-1487],≤ 1 µM

# Second part, the binder after the results:
row,"EC50 group, cGMP in GTM-3 cells",Binder
1,≤ 5 µM,[Occ][Sni]FLL[Hyp][NMeL]DRI-NH2 [JAL-1554]
2,≤ 1 µM,[Occ][Sni]F[Api]L[Hyp][NMeL]DRI-NH2 [JAL-1555]
3,≤ 1 µM,[Occ][Sni]F[dL]L[Hyp][NMeL]DR[NMeI]-NH2 [JAL-1569]
4,≤ 1 µM,[Occ][Sni]FLL[Hyp][NMeL]DP[Che] (not fully specified (residue 4); printed as Occ-Sni-Phe-leu-Leu-Hyp-Nml-Asp-Pro-Che; reading uncertain) [JAL-1512_02]
5,≤ 1 µM,[Occ][dA]F[dL]L[Hyp][NMeL][dGly(2-thienyl)]RI-NH2 [JAL-1558]
6,≤ 15 µM,[Occ][Sni]FAL[Hyp][NMeL]DRI-NH2 [JAL-1553]
7,≤ 15 µM,[Occ][Sni]FLL[Hyp][NMeL]DP[5121] (not fully specified (residue 4); printed as Occ-Sni-Phe-leu-Leu-Hyp-Nml-Asp-Pro-5121) [JAL-1513]
8,≤ 1 µM,[Occ][Sni]F[Api]L[Pro(trans-4-NH2)][NMeL]DPI-NH2 [JAL-1561]
9,≤ 1 µM,[Occ][Sni]F[dL]L[Pro(trans-4-NH2)][NMeL]DP[Che] (reading uncertain; also: printed as Occ-Sni-Phe-leu-Leu-Tap-Nml-Asp-Pro-Che) [JAL-1568]
10,≤ 1 µM,[Occ][dA]F[dL]L[Hyp][NMeL][BB725]RI-NH2 (reading uncertain; also: printed as Occ-ala-Phe-leu-Leu-Hyp-Nml-(BB725)-Arg-Ile-NH2) [JAL-1556]
11,≤ 1 µM,[Occ][Sni]F[dL]L[Pro(trans-4-NH2)][NMeL]DPI-NH2 [JAL-1559]
12,≤ 5 µM,[Occ][Sni]F[dL]L[Hyp][NMeL]D[NMeR]I-NH2 [JAL-1570]
13,≤ 5 µM,[Occ][Sni]FGL[Pro(trans-4-NH2)][NMeL]DPI-NH2 [JAL-1560]
14,≤ 15 µM,[Occ][dA]F[dL]L[Hyp][NMeL][Gly(2-thienyl)]RI-NH2 [JAL-1557]
